Publication PMC3683929

What was measured:
MBP-hnRNP A1 [1] = molecular target: T1, MBP-hnRNP A1 (mouse, UniProt P49312 1-320); test: EMSA
MBP-hnRNP A1 [2] = molecular target: T1, MBP-hnRNP A1; test: fluorescence polarization
MBP-hnRNP A1 [3] = molecular target: T1, MBP-hnRNP A1; test: FP/EMSA

T1 sequence (P49312 whole entry): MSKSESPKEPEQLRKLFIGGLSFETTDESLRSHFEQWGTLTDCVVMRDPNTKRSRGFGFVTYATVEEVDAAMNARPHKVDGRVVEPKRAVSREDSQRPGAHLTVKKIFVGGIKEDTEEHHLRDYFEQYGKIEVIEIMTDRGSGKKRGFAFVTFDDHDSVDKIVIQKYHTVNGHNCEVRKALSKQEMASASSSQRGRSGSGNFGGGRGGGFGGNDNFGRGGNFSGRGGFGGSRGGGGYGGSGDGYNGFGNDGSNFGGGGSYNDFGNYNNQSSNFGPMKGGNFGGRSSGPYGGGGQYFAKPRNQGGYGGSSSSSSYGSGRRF

| Binder | Kd (MBP-hnRNP A1 [1]) | Kd (MBP-hnRNP A1 [2]) | binding result (MBP-hnRNP A1 [1]) | binding result (MBP-hnRNP A1 [3]) |
| --- | --- | --- | --- | --- |
| GGAGGUAGGUGGCGG (structured_RNA) [Mag 15 nt G7G8 (G8G9 in Table 1)] | 70 ± 21 nM | 60 ± 18 nM |  |  |
| AGGUAGGUUC (ssRNA) [Mag 10 nt wt (-2 to 8)] | 145 ± 12 nM |  |  |  |
| AGGUAAGUUC (ssRNA) [Mag 10 nt G4A] |  |  | no binding |  |
| GGAGGUAGGUAACGG (structured_RNA) [Mag 15 nt A7A8 (A8A9 in Table 1)] | 106 ± 23 nM | 21 ± 4 nM |  |  |
| GGAGGUAGGUUUCGG (structured_RNA) [Mag 15 nt U7U8 (U8U9 in Table 1)] | 171 ± 48 nM | 92 ± 37 nM |  |  |
| GAGCCCCAGGAGGUAGGUUCCGGGGGCCU (structured_RNA) [Mag exon 12 5'ss rat wt 29 nt (-12 to 17)] |  |  |  | no binding |
